Reference: US20200147235A1 (AbbVie / Abbott, published 2020)
Residue numbers refer to the chain shown, from its start.

B1: Recombinant anti-CD98 chimeric antibody chAb1 (antibody, human IgG1, V domains shown)
VH: EVKLVESGGGLVQPGGSLRLSCATSGFTFTDYYMSWVRQPPGKALEWLGFIRNPANVYTTEYSASVKGRFTISRDNSQSILYLQMNTLRAEDSATYYCARASYGNSEGWFAYWGQGTLVTVSA
VL: DIVMSQSPSSLAVSVGEKVTMSCKSSQNLLYNNNQKNYLAWYQQKPGQSPKLLIYWASTRESGVPDRFTGSGSGTDFTLTISSVKAEDLAVYYCQQYYSYPRTFGGGTKLEIK
B2: Recombinant anti-CD98 chimeric antibody chAb4 (antibody, human IgG1, V domains shown)
VH: B1 VH with A23T, P54K, N56T, V57I
VL: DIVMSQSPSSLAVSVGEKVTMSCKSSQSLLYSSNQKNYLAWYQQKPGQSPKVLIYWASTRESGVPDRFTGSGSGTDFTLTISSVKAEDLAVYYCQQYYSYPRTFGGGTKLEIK
B3: Recombinant anti-CD98 chimeric antibody chAb3 (antibody, human IgG1, V domains shown)
VH: EVKLVESGGGLVQPGNSLRLSCATSGFTFIDYYMSWVRQSPGKALEWLGFIRNKANGYTTEYSASVKGRFTISRDNSQSILYLQMDTLRAEDSATYYCTRDRPAWFVYWGQGTLVTVSA
VL: B1 VL with N28S, N32S, N33S, I81F, K85R, R102Y
B4: Recombinant anti-CD98 chimeric antibody chAb2 (antibody, human IgG1, V domains shown)
VH: B1 VH with T28N, P54K, V57G, N76D
VL: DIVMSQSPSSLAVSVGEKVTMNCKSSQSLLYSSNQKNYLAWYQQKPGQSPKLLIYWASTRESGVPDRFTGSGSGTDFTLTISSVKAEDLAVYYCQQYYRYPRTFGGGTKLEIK
B5: Recombinant anti-CD98 chimeric antibody chAb5 (antibody, human IgG1, V domains shown)
VH: B1 VH with S35T, P54K, V57G, Q78L, G104V
VL: B1 VL with N28S, N32S, N33S, P46L, Q96H
B6: Recombinant anti-CD98 chimeric antibody chAb6 (antibody, human IgG1, V domains shown)
VH: QVQLKESGPGLAQPSQTLSLTCTVSGFSLSTYGVIWLRQPPGKGLEWMGVIWTNGNTNYNSTLKSRLSISRDTSESQVYLQMNSLQTEDTATYYCARHYYDGAYYYGYFDYWGQGVMVTVSS
VL: DIVMTQTPSSQAVSAGEKVTMSCKSSQSLLYSENKKNYLAWYQQKPGQSPKLLIYWASTRESGVPDRFIGSGSGTDFTLTISSVQAEDLAVYYCQQYYYFPYTFGAGTKLELK
B7: Recombinant anti-CD98 chimeric antibody chAb9 (antibody, human IgG1, V domains shown)
VH: B6 VH with A12V, T23A, T31N, L37V, G49A, E75K, Q81K, A103T
VL: B6 VL with S32T, I69M, T103M
B8: Recombinant anti-CD98 chimeric antibody chAb13 (antibody, human IgG1, V domains shown)
VH: B6 VH with A12V, T31S, L37V, V50I, T53A, T62A, E75K, Q81K, A103T, Y104H
VL: B6 VL with I2T, N37K, Y99N
notes: also called chAbl 3
B9: huAb15v5 (antibody, V domains shown)
VH: EVQLVESGGGVVQPGRSLRLSCAASGFTFSDYTMAWVRQAPGKGLEWVATIIYTGRGTYYRDAVKGRFTISRDNSKSTLYLQMNSLRAEDTAVYYCARQSDDTYYYWGYFDYWGQGTMVTVSS
VL: DIVMTQSPDSLAVSLGERATINCKSSQSLLFSGNQKNYLAWYQQKPGQSPKLLIYWASTRQSGVPDRFSGSGSGTDFTLTIRSLQAEDVAIYYCQQYYSSPYTFGQGTKLEIK
notes: Humanized, further engineered clone of chAb15, converted to IgG and expressed as a full-length antibody
B10: huAb15v6 (antibody, V domains shown)
VH: B9 VH with T54D, G55A
VL: B9 VL
notes: as for B9
B11: huAb15v7 (antibody, V domains shown)
VH: B9 VH with T54D, G55A
VL: B9 VL with S99G
notes: as for B9

Biological target: T1, Cynomolgus monkey CD98 ECD with C-terminal His-tag (cynomolgus monkey, UniProt P08195 105-529 (human entry))
T1 construct: also called cyCD98 ECD; recombinant cynomolgus monkey CD98 extracellular domain
T1 chain: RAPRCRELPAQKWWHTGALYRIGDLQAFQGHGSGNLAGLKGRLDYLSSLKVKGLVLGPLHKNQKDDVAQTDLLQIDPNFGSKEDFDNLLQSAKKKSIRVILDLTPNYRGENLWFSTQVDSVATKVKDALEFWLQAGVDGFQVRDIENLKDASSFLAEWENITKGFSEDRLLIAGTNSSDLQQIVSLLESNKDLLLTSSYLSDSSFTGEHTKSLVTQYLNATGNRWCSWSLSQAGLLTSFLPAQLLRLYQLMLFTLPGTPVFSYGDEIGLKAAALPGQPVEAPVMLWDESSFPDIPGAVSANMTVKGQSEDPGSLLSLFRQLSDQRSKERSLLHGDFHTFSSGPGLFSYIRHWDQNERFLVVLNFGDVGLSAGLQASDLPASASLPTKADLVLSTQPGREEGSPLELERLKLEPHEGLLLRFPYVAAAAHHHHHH
Assay: SPR Biacore, anti-Fc capture of mAb, CD98 ECD analyte
Experimental: (§1) The binding kinetics of these purified mouse and rat monoclonal anti-CD98 antibodies for purified recombinant CD98 protein (extracellular domain. ECD) were determined by surface plasmon resonance-based measurements made on Biacore T100/T200 instruments (GE Healthcare, Piscataway, N.J.) at 25° C. using an anti-Fc capture assay approach. Binding kinetic measurements were made in the assay buffer HBS-EP+: 10 mM Hepes, pH 7.4, 150 mM NaCl, 3 mM EDTA, 0.05% Tween 20). For example, approximately 8000 RU of anti-Fc (species specific) polyclonal antibody (Thermo Fisher Scientific Inc. Rockford, Ill.) diluted in 10 mM sodium acetate (pH 4.5) was directly immobilized across a CM5 research grade biosensor chip using a standard amine coupling kit according to manufacturer's instructions and procedures at 25 μg/ml. Unreacted moieties on the biosensor surface were blocked with ethanolamine. The test antibody to be captured as a ligand was diluted in running buffer to ˜0.5 μg/mL and injected over anti-Fc surface at a flow rate of 10 μL/min, CD98 binding and dissociation were observed under a continuous flow rate of 80 μL/min. Human and cynomolgus monkey CD98 ECDs, both with a C-terminal His-tag, are used for this study (Table 3). After each cycle the anti-Fc capture surface was regenerated using 10 mM Glycine-HCl, pH 1.5. During the assay, all measurements were referenced against the capture surface alone (i.e., with no captured test antibody) and buffer-only injections (no antigen) were used for double referencing. For kinetic analysis, rate equations derived from the 1:1 Langmuir binding model were fitted simultaneously, globally and with mass transfer term included to multiple referenced antigen binding curves using Biacore T100T200 Evaluation software.
(§2) Briefly, binding kinetics of anti-CD98 chimera mAbs for human and cynomolgus CD98 ECDs were determined by surface plasmon resonance-based measurements as described in Example 4.

Binder | Kd | koff | kon
B1 | 0.8 nM | 2.2e-05 s⁻¹ | 28000 M⁻¹ s⁻¹
B2 | 8.3 nM | 7.3e-05 s⁻¹ | 8800 M⁻¹ s⁻¹
B3 | 40 nM | 0.0016 s⁻¹ | 39000 M⁻¹ s⁻¹
B4 | 58 nM | 0.0011 s⁻¹ | 19000 M⁻¹ s⁻¹
B5 | 25 nM | 0.00044 s⁻¹ | 18000 M⁻¹ s⁻¹
B6 | 7.9 nM | 0.00037 s⁻¹ | 47000 M⁻¹ s⁻¹
B7 | 19 nM | 0.00063 s⁻¹ | 33000 M⁻¹ s⁻¹
B8 | 7.1 nM | 0.00044 s⁻¹ | 62000 M⁻¹ s⁻¹

Biological target: T2, Human CD98 ECD with C-terminal His-tag (human, UniProt P08195 105-529)
T2 construct: also called huCD98 ECD; recombinant human CD98 extracellular domain
T2 sequence: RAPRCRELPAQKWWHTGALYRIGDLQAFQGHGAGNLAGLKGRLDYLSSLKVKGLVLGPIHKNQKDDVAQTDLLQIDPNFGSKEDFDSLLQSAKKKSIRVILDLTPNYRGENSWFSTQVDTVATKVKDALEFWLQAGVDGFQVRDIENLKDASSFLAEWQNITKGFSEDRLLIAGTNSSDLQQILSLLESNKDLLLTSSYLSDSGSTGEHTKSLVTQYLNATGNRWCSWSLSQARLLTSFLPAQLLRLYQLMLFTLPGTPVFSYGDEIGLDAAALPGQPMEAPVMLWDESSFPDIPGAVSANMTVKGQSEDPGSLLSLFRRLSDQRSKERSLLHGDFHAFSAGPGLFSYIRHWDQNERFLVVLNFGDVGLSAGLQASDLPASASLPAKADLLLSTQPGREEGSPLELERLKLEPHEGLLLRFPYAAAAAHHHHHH
Assay: as above
Experimental: as §1, §2

Binder | Kd | koff | kon
B1 | 0.21 nM | 1.5e-05 s⁻¹ | 68000 M⁻¹ s⁻¹
B2 | 2.8 nM | 7.8e-05 s⁻¹ | 28000 M⁻¹ s⁻¹
B3 | 21 nM | 0.0034 s⁻¹ | 160000 M⁻¹ s⁻¹
B4 | 1.6 nM | 9.6e-05 s⁻¹ | 59000 M⁻¹ s⁻¹
B5 | 7.5 nM | 0.0003 s⁻¹ | 40000 M⁻¹ s⁻¹
B6 | 1.3 nM | 0.00014 s⁻¹ | 110000 M⁻¹ s⁻¹
B7 | 3.3 nM | 0.00024 s⁻¹ | 73000 M⁻¹ s⁻¹
B8 | 1.2 nM | 0.00016 s⁻¹ | 130000 M⁻¹ s⁻¹

Biological target: T3, Cynomolgus monkey CD98 expressed on stably transfected 3T12 cells (cynomolgus monkey)
T3 construct: whole, on cells; also called cyCD98
Assay: flow cytometry, 3T12 cells expressing cynomolgus CD98
Experimental: (§3) Briefly, binding kinetics of anti-CD98 chimera mAbs for human and cynomolgus CD98 ECDs were determined by surface plasmon resonance-based measurements as described in Example 4. Table 10 reported the association and dissociation rate constants for CD98 binding, kₐ (M⁻¹s⁻¹) and kd (s⁻¹), and the equilibrium dissociation constant KD (M) of the interaction between antibodies and the target antigen. Binding of anti-CD98 chimera mAbs for CD98 on cell surface was evaluated by flow cytometry against CHO-K1 cell line stably transfected to express human CD98 and 3T12 cell line stably transfected to express cynomolgus monkey CD98.

Binder | EC50
B1 | 9.86 nM
B2 | 17.2 nM
B3 | 9.87 nM
B4 | 12.7 nM
B5 | 24.2 nM
B6 | 5.99 nM
B7 | 11.1 nM
B8 | 2.98 nM

Biological target: T4, Human CD98 expressed on stably transfected CHO-K1 cells (human)
T4 construct: also called huCD98; CD98 heavy chain
T4 chain: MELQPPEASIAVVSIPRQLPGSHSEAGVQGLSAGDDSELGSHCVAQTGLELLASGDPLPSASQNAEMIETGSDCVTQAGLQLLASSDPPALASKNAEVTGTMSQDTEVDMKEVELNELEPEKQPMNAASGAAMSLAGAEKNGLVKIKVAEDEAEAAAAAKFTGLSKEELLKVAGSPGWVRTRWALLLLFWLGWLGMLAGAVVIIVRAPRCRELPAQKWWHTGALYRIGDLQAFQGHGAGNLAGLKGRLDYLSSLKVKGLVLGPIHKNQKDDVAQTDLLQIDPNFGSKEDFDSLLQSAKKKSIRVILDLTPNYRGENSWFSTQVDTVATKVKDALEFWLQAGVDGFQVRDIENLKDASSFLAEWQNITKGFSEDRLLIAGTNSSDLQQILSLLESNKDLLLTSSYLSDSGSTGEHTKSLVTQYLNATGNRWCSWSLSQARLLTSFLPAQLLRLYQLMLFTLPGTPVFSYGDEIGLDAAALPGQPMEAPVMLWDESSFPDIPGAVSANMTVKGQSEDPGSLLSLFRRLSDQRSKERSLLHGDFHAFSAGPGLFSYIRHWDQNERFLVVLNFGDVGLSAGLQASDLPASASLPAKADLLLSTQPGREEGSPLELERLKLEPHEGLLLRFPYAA
Assay: flow cytometry, CHO-K1 cells expressing human CD98
Experimental: as §3

Binder | EC50
B1 | 1.67 nM
B2 | 5.41 nM
B3 | 2.02 nM
B4 | 3.84 nM
B5 | 3.25 nM
B6 | 2.08 nM
B7 | 8.55 nM
B8 | 3.24 nM

Biological target: T5, Cynomolgus monkey CD98 ECD with C-terminal His-tag (cynomolgus monkey, UniProt P08195 105-529 (human entry))
T5 construct: The entry includes the linker and the polyhistidine tag; also called cyCD98 ECD
T5 chain: T1 chain
Assay: SPR (Biacore), antibody captured on anti-Fc surface, CD98 ECD in solution
Experimental: as §1
(§4) The binding kinetics of the recombinant anti-CD98 chimeric antibodies for purified recombinant CD98 protein (extracellular domain, ECD) were determined by surface plasmon resonance-based measurements, as described in the Example 4.

Binder | Kd | koff | kon
B9 | 11 nM | 0.00018 s⁻¹ | 17000 M⁻¹ s⁻¹
B10 | 34 nM | 0.00049 s⁻¹ | 14000 M⁻¹ s⁻¹
B11 | 30 nM | 0.00043 s⁻¹ | 14000 M⁻¹ s⁻¹

Biological target: T6, Human CD98 ECD with C-terminal His-tag (human, UniProt P08195 105-529)
T6 construct: The entry includes the linker and the polyhistidine tag; also called huCD98 ECD
T6 sequence: T2 sequence
Assay: as above
Experimental: as §1, §4

Binder | Kd | koff | kon
B9 | 3.1 nM | 0.00013 s⁻¹ | 41000 M⁻¹ s⁻¹
B10 | 6.7 nM | 0.00026 s⁻¹ | 38000 M⁻¹ s⁻¹
B11 | 5.9 nM | 0.00021 s⁻¹ | 35000 M⁻¹ s⁻¹
